Assay type in all cases: biochemical
Data set [1] in a line: HTP-analysis of supernatants pretreated with base (MUGal hydrolysis). The settings on record: activity of the variant/activity of Rd4BB (SEQ ID NO: 15); challenge at pH 9.65. In short, it runs like this:
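GLA variants secreted from yeast INVSc1; culture supernatants pre-incubated with McIlvaine buffer pH 7.0–8.2 or 200 mM bicarbonate pH 9.1–9.7 at 37° C. for 1–18 h. Residual activity: MUGal (4 mM stock) hydrolysis at pH 4.3–4.8, 37° C., 30–180 min, carbonate quench; fluorescence Ex 355/Em 448 nm.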

The nature of data set [2]: HTP-analysis of yeast culture supernatants, no challenge (MUGal hydrolysis). The settings on record: activity of the variant/activity of Rd4BB (SEQ ID NO: 15). The method, boiled down: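 GLA variants expressed in yeast INVSc1, secreted into SD-Ura broth over 66-84 h at 30° C; clarified supernatants tested without challenge. Supernatant mixed with McIlvaine buffer pH 4.8 and 2 mM MUGal (citrate/KCl, pH 4.6), 37° C for 30-180 min, carbonate-quenched, fluorescence Ex 355/Em 448 nm.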

Data set [3] in a line: HTP-analysis of supernatants pretreated with acid (MUGal hydrolysis). The settings on record: activity of the variant/activity of Rd4BB (SEQ ID NO: 15); challenge at pH 3.7. In short, it runs like this: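 MUGal hydrolysis was tracked by fluorescence (Ex 355 nm, Em 448 nm) after a 30-180 min reaction at 37° C. in pH 4.8 McIlvaine/citrate buffer, stopped with 1 M sodium carbonate. Beforehand, yeast (INVSc1) culture supernatants carrying GLA variants were held 1-3 h at 37° C. in acidic McIlvaine buffer, pH 3.3-4.3.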

Where a chain is given by its changes, count along the chain named.

B1: 461 (protein)
chain: LDNGLARTPTMGWLHWERFMCNLDCQEEPDSCISEKLFMEMAERMVSEGWKDAGYEYLCIDDCWMAPQRDSEGRLQADPQRFPHGIRQLANYVHSKGLKLGIYADVGNKTCAGFPGSFGYYDIDAQTFADWGVDLLKFDGCYCDSLENLADGYKHMSLALNRTGRSIVYSCEWPLYMWPFQKPNYTEIRQYCNHWRNFADIDDSWKSIKSILDWTSRNQERIVDVAGPGGWNDPDMLVIGNFGLSWDQQVTQMALWAIMAAPLFMSNDLRHISPQAKALLQDKDVIAINQDPLGKQGYQLRKGDNFEVWERPLSGDAWAVAIINRQEIGGPRSYTIPVASLGKGVACNPACFITQLLPVKRQLGFYNWTSRLKSHINPTGTVLLQLENTMQQSLKDLL
modifications: Synthetic Polypeptide sequence of Variant No. 461 of mature Human GLA
With B1, the “Relative Activity of GLA Variants After Challenge at pH 9.65” value (“Relative Activity … at pH 9.65” for short) in data set [1] is on record as “+ (0.5 to 1.5 relative activity over Rd4BB (SEQ ID NO: 15))”. The “Relative Activity of GLA Variants After No Challenge (NC)” value in data set [2] is “+ (0.5 to 1.5 relative activity over Rd4BB (SEQ ID NO: 15))”. The “Relative Activity of GLA Variants After Challenge at pH 3.7” value (from here on “Relative Activity … at pH 3.7”) in data set [3] was “+ (0.5 to 1.5 relative activity over Rd4BB (SEQ ID NO: 15))”.

B2: 465 (protein)
chain: B1 chain with M390Q, Q392M
modifications: Synthetic Polypeptide sequence of Variant No. 465 of mature Human GLA
As to B2, the “Relative Activity … at pH 9.65” value in data set [1] is “+ (0.5 to 1.5 relative activity over Rd4BB (SEQ ID NO: 15))”. For the same molecule, in data set [2], the “Relative Activity of GLA Variants After No Challenge (NC)” value is “+ (0.5 to 1.5 relative activity over Rd4BB (SEQ ID NO: 15))”. In addition, the “Relative Activity … at pH 3.7” value in data set [3] was “+ (0.5 to 1.5 relative activity over Rd4BB (SEQ ID NO: 15))”.

B3: 468 (protein)
chain: B1 chain with T389Q, Q392M
modifications: Synthetic Polypeptide sequence of Variant No. 468 of mature Human GLA
Regarding B3, in data set [1], the “Relative Activity … at pH 9.65” value was “+ (0.5 to 1.5 relative activity over Rd4BB (SEQ ID NO: 15))”. Besides, the “Relative Activity of GLA Variants After No Challenge (NC)” value in data set [2] is listed as “+ (0.5 to 1.5 relative activity over Rd4BB (SEQ ID NO: 15))”. Moreover, the “Relative Activity … at pH 3.7” value in data set [3] is on record as “+ (0.5 to 1.5 relative activity over Rd4BB (SEQ ID NO: 15))”.

B4: 466 (protein)
chain: B1 chain with Q392E
modifications: Synthetic Polypeptide sequence of Variant No. 466 of mature Human GLA
For B4, in data set [1], the “Relative Activity … at pH 9.65” value is on record as “+ (0.5 to 1.5 relative activity over Rd4BB (SEQ ID NO: 15))”. For the same molecule, the “Relative Activity of GLA Variants After No Challenge (NC)” value in data set [2] was “+ (0.5 to 1.5 relative activity over Rd4BB (SEQ ID NO: 15))”. Further, the “Relative Activity … at pH 3.7” value in data set [3] was “+ (0.5 to 1.5 relative activity over Rd4BB (SEQ ID NO: 15))”.

B5: 473 (protein)
chain: B1 chain with Q392L
modifications: Synthetic Polypeptide sequence of Variant No. 473 of mature Human GLA
Turning to B5, the “Relative Activity … at pH 9.65” value in data set [1] was “+ (0.5 to 1.5 relative activity over Rd4BB (SEQ ID NO: 15))”. Further, the “Relative Activity of GLA Variants After No Challenge (NC)” value in data set [2] is reported as “+ (0.5 to 1.5 relative activity over Rd4BB (SEQ ID NO: 15))”. The “Relative Activity … at pH 3.7” value in data set [3] was “+ (0.5 to 1.5 relative activity over Rd4BB (SEQ ID NO: 15))”.

B6: 469 (protein)
chain: B1 chain with Q385I, Q392M
modifications: Synthetic Polypeptide sequence of Variant No. 469 of mature Human GLA
With B6, in data set [1], the “Relative Activity … at pH 9.65” value is reported as “+ (0.5 to 1.5 relative activity over Rd4BB (SEQ ID NO: 15))”. The “Relative Activity of GLA Variants After No Challenge (NC)” value in data set [2] is recorded as “+ (0.5 to 1.5 relative activity over Rd4BB (SEQ ID NO: 15))”. Besides, in data set [3], the “Relative Activity … at pH 3.7” value is on record as “+ (0.5 to 1.5 relative activity over Rd4BB (SEQ ID NO: 15))”.

B7: 368 (protein)
chain: B1 chain with R44A, Q392M
modifications: Synthetic Polypeptide sequence of Variant No. 368 of mature Human GLA
In the case of B7, in data set [1], the “Relative Activity … at pH 9.65” value is reported as “+ (0.5 to 1.5 relative activity over Rd4BB (SEQ ID NO: 15))”. Moreover, the “Relative Activity of GLA Variants After No Challenge (NC)” value in data set [2] is given as “+ (0.5 to 1.5 relative activity over Rd4BB (SEQ ID NO: 15))”. In data set [3], the “Relative Activity … at pH 3.7” value is given as “+ (0.5 to 1.5 relative activity over Rd4BB (SEQ ID NO: 15))”.

B8: 472 (protein)
chain: B1 chain with Q392K
modifications: Synthetic Polypeptide sequence of Variant No. 472 of mature Human GLA
B8: in data set [1], the “Relative Activity … at pH 9.65” value was “+ (0.5 to 1.5 relative activity over Rd4BB (SEQ ID NO: 15))”. In data set [2], the “Relative Activity of GLA Variants After No Challenge (NC)” value is on record as “+ (0.5 to 1.5 relative activity over Rd4BB (SEQ ID NO: 15))”. Moreover, the “Relative Activity … at pH 3.7” value in data set [3] was “+ (0.5 to 1.5 relative activity over Rd4BB (SEQ ID NO: 15))”.

B9: 471 (protein)
chain: B1 chain with T389W, Q392M
modifications: Synthetic Polypeptide sequence of Variant No. 471 of mature Human GLA
Take B9: the “Relative Activity … at pH 9.65” value in data set [1] is “+ (0.5 to 1.5 relative activity over Rd4BB (SEQ ID NO: 15))”. Besides, the “Relative Activity of GLA Variants After No Challenge (NC)” value in data set [2] was “+ (0.5 to 1.5 relative activity over Rd4BB (SEQ ID NO: 15))”. Further, in data set [3], the “Relative Activity … at pH 3.7” value was “+ (0.5 to 1.5 relative activity over Rd4BB (SEQ ID NO: 15))”.

B10: 474 (protein)
chain: B1 chain with L386F, Q392M
modifications: Synthetic Polypeptide sequence of Variant No. 474 of mature Human GLA
For B10, the “Relative Activity … at pH 9.65” value in data set [1] is reported as “+ (0.5 to 1.5 relative activity over Rd4BB (SEQ ID NO: 15))”. Also, the “Relative Activity of GLA Variants After No Challenge (NC)” value in data set [2] was “+ (0.5 to 1.5 relative activity over Rd4BB (SEQ ID NO: 15))”. The “Relative Activity … at pH 3.7” value in data set [3] is on record as “++ (>1.5 to 2.5 relative activity over Rd4BB (SEQ ID NO: 15))”.

B11: 470 (protein)
chain: B1 chain with Q392R
modifications: Synthetic Polypeptide sequence of Variant No. 470 of mature Human GLA
Regarding B11, the “Relative Activity … at pH 9.65” value in data set [1] is recorded as “+ (0.5 to 1.5 relative activity over Rd4BB (SEQ ID NO: 15))”. In addition, the “Relative Activity of GLA Variants After No Challenge (NC)” value in data set [2] is reported as “+ (0.5 to 1.5 relative activity over Rd4BB (SEQ ID NO: 15))”. For the same molecule, in data set [3], the “Relative Activity … at pH 3.7” value was “++ (>1.5 to 2.5 relative activity over Rd4BB (SEQ ID NO: 15))”.

B12: 463 (protein)
chain: B1 chain with M390T, Q392M
modifications: Synthetic Polypeptide sequence of Variant No. 463 of mature Human GLA
With B12, the “Relative Activity … at pH 9.65” value in data set [1] is listed as “+ (0.5 to 1.5 relative activity over Rd4BB (SEQ ID NO: 15))”. In data set [2], the “Relative Activity of GLA Variants After No Challenge (NC)” value is “+ (0.5 to 1.5 relative activity over Rd4BB (SEQ ID NO: 15))”. Moreover, the “Relative Activity … at pH 3.7” value in data set [3] is “+ (0.5 to 1.5 relative activity over Rd4BB (SEQ ID NO: 15))”.

B13: 462 (protein)
chain: B1 chain with Q385L, Q392M
modifications: Synthetic Polypeptide sequence of Variant No. 462 of mature Human GLA
Turning to B13, the “Relative Activity … at pH 9.65” value in data set [1] was “+ (0.5 to 1.5 relative activity over Rd4BB (SEQ ID NO: 15))”. For the same molecule, the “Relative Activity of GLA Variants After No Challenge (NC)” value in data set [2] is on record as “+ (0.5 to 1.5 relative activity over Rd4BB (SEQ ID NO: 15))”. In addition, in data set [3], the “Relative Activity … at pH 3.7” value was “+ (0.5 to 1.5 relative activity over Rd4BB (SEQ ID NO: 15))”.

B14: 467 (protein)
chain: B1 chain with T389S, Q392M
modifications: Synthetic Polypeptide sequence of Variant No. 467 of mature Human GLA
For B14, in data set [1], the “Relative Activity … at pH 9.65” value is listed as “+ (0.5 to 1.5 relative activity over Rd4BB (SEQ ID NO: 15))”. For the same molecule, the “Relative Activity of GLA Variants After No Challenge (NC)” value in data set [2] is “+ (0.5 to 1.5 relative activity over Rd4BB (SEQ ID NO: 15))”. In addition, the “Relative Activity … at pH 3.7” value in data set [3] is listed as “+ (0.5 to 1.5 relative activity over Rd4BB (SEQ ID NO: 15))”.
